Reference: patent publication US7888090B2, “Mutants of O6-alkylguanine-DNA alkyltransferase” (Ecole Polytechnique Federale de Lausanne, priority 2004, dated 2011)
“Also recorded” adds a separate entry of the source.

Legend:
[1] = Reaction of two AGT variants in one sample with CPTG and BG-Bt; type: biochemical; details: versus His-tagged AGTM
Experimental: FIG. 2: Western blot of the reaction of wild type hAGT (GST-hAGT fusion protein) and AGTM with the two substrates N^9-cyclopentyl-O^6-bromophenyl-guanine (CPTG) and biotinylated O^6-benzylguanine (BG-Bt, substance 3a of Juillerat et al. 2003) as described in Example 7. BG-Bt is present in all samples at 5 μM. Detection with neutravidin-peroxidase conjugate and luminescent peroxidase substrate detecting any AGT reacted with BG-Bt. Even under simultaneous incubation with identical concentrations of CPTG and BG-Bt only about 5% of GST-hAGT reacts with substrate BG-Bt.
Within the experiment two tags with different size for the two AGT proteins are used: The His-tagged AGTM (˜20 kDa) and GST-hAGT (cloned and prepared as described in Example 1, but starting with the wild type hAGT gene, ˜48 kDa) are diluted to 0.2 μM and 1.2 μM final concentration, respectively, in reaction buffer containing 50 mM HEPES, 1 mM DTT, 200 mg/mL BSA (pH 7.3). The sample is incubated with a mixture of substrates N^9-cyclopentyl-O^6-bromophenyl-guanine (CPTG; 0, 5 and 10 μM final concentrations) and biotinylated O^6-benzylguanine (BG-Bt, 5 μM final concentration) for 30 minutes. The reaction is quenched by addition of SDS-Laemmli buffer and subjected to Western blotting analysis (Example 1). As the two AGT variants have different masses, the two proteins can be separated on an acrylamide gel and analyzed independently. […] At the same concentration (both substrates at 5 μM final concentration), 95% of GST-hAGT reacts with CPTG, versus only 5% of His-tagged AGTM.

[2] = Activity assay with biotinylated O^6-benzylguanine (BG-Bt), Western blotting; type: biochemical; details: statement in words
Experimental: Activity towards O^6-benzylguanine substrates is measured as described by Juillerat et al., Chem Biol 10:313-317, 2003.
Activity assay: Purified mutated GST-AGT is incubated in vitro with a biotinylated O^6-benzylguanine (BG-Bt, substance 3a of Juillerat et al., Chem Biol 10:313-317, 2003). In a total reaction volume of 80 […]I, 0.2 µM GST-AGT are incubated with 1 µM substrate in 50 mM HEPES pH 7.2 and 1 mM DTT at room temperature. At several points of time an aliquot is quenched with 1 mM O^6-benzylguanine (Sigma) in SDS-Laemmli buffer and subjected to Western blotting analysis (neutravidin-peroxidase conjugate (PIERCE), Renaissance reagent plus (NEN)). The intensity of the corresponding bands is quantified by a Kodak Image Station 440.

[3] = Expression yield of soluble GST-AGT fusion protein; parameters: species or system E. coli; details: comparator not stated
Experimental: Expression yield is measured in E. coli or in any other of the standard production cells for genetically modified proteins, e.g. yeast, or preferably insect cells, CHO cells or HeLa cells. For quantifying expression yield, AGT fusion proteins may be chosen such that the fusion partner allows easy purification and quantification. For example, expression yield in E. coli is determined by measuring and comparing the yield of soluble and insoluble GST-wild type AGT fusion protein and GST-mutant AGT fusion protein from parallel E. coli expression cultures. Samples of the soluble fractions and insoluble fractions (i.e. the inclusion bodies) after cell lysis are subjected to SDS-PAGE, and the band staining intensities of the corresponding AGT fusion proteins are compared. Soluble protein is quantified after purification of the fusion protein from cell extracts by affinity chromatography (e.g. for GST-AGT fusion proteins by glutathione sepharose) by subjecting the purified fractions to a protein concentration assay (Bradford, Anal Biochem 72:248-54, 1976). The expression yield of similar proteins in the soluble fraction (difference in point mutations) can be used as a measure for protein stability in the unpurified as well as the purified state (Ohage et al., J Mol Biol 291:1119-1128, 1999; Wirtz et al., Protein Sci 8: 2245-50, 1999). Therefore, this is taken as a measure of folding stability and aggregation tendency.
Protein expression from this vector is carried out in E. coli strain BL21. An exponentially growing culture is induced with 0.5 mM IPTG, and the expression is carried out for 3.5 h at 24° C.
Purification: The harvested cells are resuspended in a buffer containing 50 mM phosphate, 0.5 M NaCl, 1 mM DTT, supplemented with 1 mM PMSF and 2 μg/ml aprotinin, and disrupted by lysozyme and sonification. The cell debris are separated by centrifugation at 40000×g. The extract is applied to pre-equilibrated glutathione sepharose (Amersham) which is then washed with 20 bed volumes (50 mM phosphate, 0.5 M NaCl, 1 mM DTT). The mutated GST-AGT fusion protein is eluted with 10 mM reduced glutathione in 50 mM Tris·HCl pH 7.9. The purified protein is dialyzed against 50 mM HEPES pH 7.2; 1 mM DTT; 30% glycerol and then stored at −80° C.
Determination of protein yield: Purity and relative amounts of the GST-AGT fusion proteins are compared by running samples on SDS-PAGE. UV spectra of the pure fractions are recorded using a Perkin Elmer Lambda 10. For protein samples containing no significant amount of DNA, the extinction at 280 nm as a measure of protein content is compared to that of wild type hAGT or PGEG-hAGT that were purified under the same conditions.

[4] = Competition of N^9-substituted and N^9-unsubstituted O^6-benzylguanine substrates; type: biochemical
Experimental: Such N^9-substituted O^6-alkylguanine substrates are the natural substrates of the wild type AGT. The ability of wild type AGT or mutant AGT to react with N^9-modified O^6-alkylguanine substrates is measured as the rate of its reaction with such substrates, e.g. with the low molecular weight N^9-cyclopentyl-O^6-benzylguanine in presence of biotinylated N^9-unsubstituted O^6-alkylguanine substrates in competition experiments. Subsequently, samples are subjected to Western blotting and detection with streptavidin derivates to obtain kinetic constants for these substrates. Alternatively, the reactivity towards such substrates is measured as the inhibition of the reaction of AGT with BG-Cy3. The reaction of AGT with BG-Cy3 is followed by an increase of Cy3 fluorescence intensity upon binding to AGT, after preincubation or in direct competition with the N^9-modified O^6-alkylguanine substrate.
Selected AGT mutants are subcloned into pGEX2T, expressed, purified and characterized as described in Example 1. Discrimination between N^9 substituted and N^9 unsubstituted O^6-benzylguanine substrates is evaluated by competition experiments for purified mutated GST-AGT in vitro with N^9-substituted and N′-unsubstituted O^6-benzylguanine. Aliquots of 0.2 μM GST-AGT are incubated with varying concentrations of N^9 substituted substrate (0, 0.5, up to 100 µM) and 0.5 µM biotinylated O^6-benzylguanine (BG-Bt, substance 3a of Juillerat et al., Chem Biol 10:313-317, 2003) in 50 mM HEPES pH 7.3 and 1 mM DTT at room temperature. After 45 min reactions are quenched by the addition of SDS-Laemmli buffer and heat denaturation. Samples are subjected to SDS-PAGE and Western blotting analysis (neutravidin-peroxidase conjugate (PIERCE), Renaissance reagent plus (NEN)). The intensity of the corresponding bands is quantified by a Kodak Image Station 440.

[5] = test system: oligonucleotide SEQ ID NO:2 (modified in position 14); experiment: Reactivity against DNA-based substrates (BG-Cy3 assay with BG-modified oligonucleotide); type: biochemical; details: oligonucleotide SEQ ID NO:2 with O^6-benzyl at position 14; compared to PGEG-hAGT
Experimental: The ability of wild type AGT or mutant AGT to react with alkylated DNA substrates is measured as the reaction of its inactivation by a synthetic oligonucleotide containing O^6-benzylguanine (SEQ ID NO:2, modified in position 14). Subsequently, the reactions are quenched by incubation with biotinylated O^6-alkylguanine. Samples are subjected to Western blotting and detection with streptavidin derivates to obtain kinetic constants for these substrates. Alternatively, the ability of wild type or mutant AGT to react with alkylated DNA substrates is measured via its labeling efficiency in competition with a fluorescent substrate of AGT. The reaction kinetics of AGT with BG-Cy3 (O^6-benzylguanine coupled to Cy3) is followed by fluorescence intensity measurements at various concentrations of a competing synthetic oligonucleotide containing O^6-benzylguanine (SEQ ID NO:2, modified in position 14).
Reactivity against DNA-based substrates measured with a BG-Cy3 assay: BG-Cy3 is prepared by reacting the previously described O^6-(4-aminomethyl-benzyl)guanine (Keppler et al., NatureBiotechnol. 21:86-89, 2003) with the commercially available N-hydroxysuccinimide ester of Cy3, (Cy3-NHS, Amersham). The coupling reaction is performed at ambient temperature in N,N-dimethylformamide in the presence of 1 eq. of triethylamine. The BG-Cy3 conjugate is purified by reversed-phase HPLC on a C18-column by using linear gradients from 0.1% trifluoroacetic acid to acetonitrile. After solvent evaporation BG-Cy3 is dissolved in dimethyl sulfoxide and stored at −20° C. For measuring the reactivity with DNA-based substrates, a reaction mixture containing different concentrations (0 to 5 µM) of oligonucleotide SEQ ID NO:2 (modified in position 14), GST-AGT fusion protein at 0.2 µM and BG-Cy3 at […] in reaction buffer (50 mM HEPES, pH 7.2, 1 mM DTT, 200 mg/ml BSA) is incubated in microtiterplates. Fluorescence of the Cy3 derivative (excitation 519 nm, emission at 572 nm) is measured on a Spectramax Gemini plate reader (Molecular Devices).

Molecule | specificity of CPTG towards GST-hAGT [1] | activity towards O^6-benzylguanine substrates [2] | expression yield in E. coli [3] | reduced reactivity towards O^6-alkyl-N^9-deoxyribosylguanine or N^9-cyclopentyl-O^6-benzylguanine ([4]; comparator not stated) | reduction of reactivity towards O^6-alkyl-N^9-deoxyribosylguanine or N^9-cyclopentyl-O^6-benzylguanine ([4]; compared to PGEG-hAGT) | reduction of reactivity with oligonucleotides [5]
Nc1nc(OCc2cc(Br)cs2)c2ncn(C3CCCC3)c2n1 [CPTG, reference compound] | high specificity | – | – | – | – | –
Gly131Lys, Gly132Thr, Met134Leu, Arg135Ser, Asn157Gly, Ser159Glu: hAGT mutant with the listed mutations, selected by phage display (protein, UniProt P16455 1-207, looked up, variant G131K G132T M134L R135S N157G S159E) Methylated-DNA--protein-cystei …: MDKDCEMKRTTLDSPLGKLELSGCEQGLHEIKLLGKGTSAADAVEVPAPAAVLGGPEPLMQCTAWLNAYFHQPEAIEEFPVPALHHPVFQQESFTRQVLWKLLKVVKFGEVISYQQLAALAGNPKAARAVKTALSGNPVPILIPCHRVVCSSGAVGGYEGGLAVKEWLLAHEGHRLGKPGLGGSSGLAGAWLKGAGATSGSPPAGRN | – | at least twofold further increased activity; also recorded: increased reactivity | increased expression yield | substantially reduced reactivity | at least 10 fold | at least 1000 fold
Gln115Ser, Gln116His, Cys150Asn, Ser151Ile, Ser152Asn, Asn157Gly, Ser159Glu: hAGT mutant with the listed mutations, selected by phage display (protein, UniProt P16455 1-207, looked up, variant Q115S Q116H C150N S151I S152N N157G S159E) Methylated-DNA--protein-cystei …: MDKDCEMKRTTLDSPLGKLELSGCEQGLHEIKLLGKGTSAADAVEVPAPAAVLGGPEPLMQCTAWLNAYFHQPEAIEEFPVPALHHPVFQQESFTRQVLWKLLKVVKFGEVISYSHLAALAGNPKAARAVGGAMRGNPVPILIPCHRVVNINGAVGGYEGGLAVKEWLLAHEGHRLGKPGLGGSSGLAGAWLKGAGATSGSPPAGRN | – | retains activity | substantially increased expression yield | – | – | –
